± gives the uncertainty stated by the source.

This data set in a line: amyloid nucleation score (Sup35N fusion, yeast selection) (log enrichment); library NNK3; higher = more nucleation; inactive = no reads after selection. In short, it runs like this:
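DiMSum was used to calculate nucleation scores as log enrichment of output over input reads, centred on the mode score of non-aggregating sequences. Sequences with fewer than 100 input reads were not scored. Input and output came from Illumina sequencing of plasmid inserts in psi-negative yeast expressing peptides of 20 random codons fused to Sup35N, induced 24 hours with 100 μM copper sulfate and then grown 7 days at 30°C on medium lacking adenine and uracil.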
Take LAGCNPLASARFVWVI: the amyloid nucleation score entry was “inactive”. On to LAINIFWLEDRCSPIGCNAG, for which the amyloid nucleation score entry was “inactive”. The same measure for LALAVGQRDRVLFVKVPVLR: “inactive”; for LAMAPITKSSKLMLAFMR: “inactive”; for LANSKLDCLSVHLFEHNCLA: 1.95 ± 0.069. Turning to LAQSQNVVEARINSPWWDSP, the amyloid nucleation score entry was “inactive”.

For the substance LASKLDCVLPHYNVGRCNDP, the amyloid nucleation score came out at 0.297 ± 0.7. In the case of LAVLIVDKPYADETHRLLVR, the amyloid nucleation score entry is “inactive”. For the substance LCAFHKRNRQEVACVMFVKS, the amyloid nucleation score result was “inactive”. For LCAYNSTWSACNWGFIHNSL, the amyloid nucleation score amounted to 2.58 ± 0.051. Consider LCECR, for which the amyloid nucleation score entry was “inactive”.

As to LCESSLKDNGVTSLFVWVLK, the amyloid nucleation score entry is “inactive”. The same measure for LCFARGLRCTSSVAVESGD: “inactive”.

LCIGVDLKPCYGSVDRYVNL: the amyloid nucleation score entry is “inactive”. With LCILMMKVKVCVGNGLFLSA, the amyloid nucleation score entry was “inactive”.

Consider LCKFYRYRTLRHSEEKPCHH, for which the amyloid nucleation score result was “inactive”. The same measure for LCLRRGGFVRIGVWVFVFYG: “inactive”; for LCLSTIV: “inactive”. Turning to LCNKWY, the amyloid nucleation score entry was “inactive”. Consider LCRGCSLGACGNSGLKYCGW, for which the amyloid nucleation score result was “inactive”. In the case of LCRLGSSRSVSGVRLGCTLR, the amyloid nucleation score entry is “inactive”. As for LCSDLVFHNR, the entry is “inactive”; as for LCSGVHHFVRNTIVKGVCDG, “inactive”; as for LCSLCNSLAQWRYNSEWLYT, “inactive”. As to LCSYSIESFALLHVFNEAFQ, the amyloid nucleation score entry was “inactive”. As for LCTNLYWVQFIMEPEEGVIQ, the figure is 1.54 ± 0.082; as for LCTYVFYPIANSSALSLNKV, “inactive”; as for LCVFKWLILREYISITHDSI, “inactive”.

Take LCWKFAPRMLVYMMGY: the amyloid nucleation score result is “inactive”.

In the case of LCYALQEGRRWEGYEIRNSM, the amyloid nucleation score result was “inactive”.

For the substance LCYNVKSVCGQTMLQLVE, the amyloid nucleation score result was “inactive”. In the case of LDAYDSLLFL, the amyloid nucleation score result is “inactive”. For the substance LDFDVGI, the amyloid nucleation score result was “inactive”. As for LDFKIPRN, the entry is “inactive”; as for LDHYGLSLAHDVRRGVCCFW, 1.13 ± 0.14. Take LDLNLRVRVLFKFTTGLTFF: the amyloid nucleation score entry was “inactive”. As for LDNKFSALGCFANARFK, the entry is “inactive”; as for LDRCNFISTILPQIRFSV, “inactive”; as for LDRKFGLRYNGTSYTCDSMV, “inactive”. As for LDSIPSMSTVLLMSASGCND, the entry is “inactive”.

Regarding LDTDGSICCCPRAIAHLL, the amyloid nucleation score entry was “inactive”. Regarding LDTDWLGYSSLP, the amyloid nucleation score result was “inactive”. As to LEFRYPAMWLKFSLYVWTLI, the amyloid nucleation score result was “inactive”. For the substance LEGQMTVRRDFTRFDW, the amyloid nucleation score entry was “inactive”. As for LEGSYPRADIAVNVFTVFTQ, the entry is “inactive”; as for LELDCASNRLSPNGIYMYFW, 0.123 ± 0.35; as for LENSNFWSCSWISRYIYIRN, “inactive”.

As to LESEASGYKMSKVRVAQCRR, the amyloid nucleation score result is “inactive”.

Regarding LETFI, the amyloid nucleation score result is “inactive”. In the case of LEYAVVKSHQREESSSTCLG, the amyloid nucleation score result is “inactive”.

Regarding LEYYAS, the amyloid nucleation score entry was “inactive”. With LFDCFVILKDFACEFKNIPD, the amyloid nucleation score entry was “inactive”. LFEHLRW returned an amyloid nucleation score of 0.685 ± 0.2. As for LFEYGYCMIGIQLLKRY, the entry is “inactive”; as for LFFHHVKLRH, “inactive”.

Turning to LFFKP, the amyloid nucleation score result was “inactive”.

Turning to LFFRLHYS, the amyloid nucleation score entry was “inactive”. As for LFFYSYTSFSIC, the amyloid nucleation score result was “inactive”.

In the case of LFGTNQYYNY, the amyloid nucleation score entry was “inactive”. The same measure for LFHHNCWNSNLSKVYMPACN: 0.761 ± 0.1; for LFIFNGCAM: 2.31 ± 0.057; for LFIRP: “inactive”. As for LFITLGAV, the amyloid nucleation score result was “inactive”. As for LFKMSV, the entry is “inactive”; as for LFKYGALLCVEVQY, “inactive”. Take LFLLFFSAHGQYIRCAIIVR: the amyloid nucleation score result is “inactive”. For the substance LFNDLVAHKGPDYITYATCV, the amyloid nucleation score result is “inactive”. With LFRFGI, the amyloid nucleation score is -0.005 ± 0.22. Consider LFRLFVSEARTRLNCRTCNF, for which the amyloid nucleation score was -0.285 ± 0.64. As for LFRVDRPTNCGPYFAYHEYT, the amyloid nucleation score result is “inactive”. As for LFSELKISSVWCDL, the entry is “inactive”. Turning to LFSTCSSWTQFLLRPAVSAV, the amyloid nucleation score result is “inactive”. LFVRVCSANYFSWEYDSRVN: the amyloid nucleation score entry was “inactive”. As for LFWPICFHNMTFVLYTSLLN, the amyloid nucleation score result was “inactive”. As to LFWSNLWRRDMNISVSNYWL, the amyloid nucleation score was 1.69 ± 0.11. Consider LFYFVWRVYKFILWSG, for which the amyloid nucleation score result is “inactive”. In the case of LFYGNW, the amyloid nucleation score entry was “inactive”.

For the substance LFYIPFCMSFWTSKDRNA, the amyloid nucleation score entry is “inactive”. On to LGAAFCAPSSSYGKMGP, for which the amyloid nucleation score result is “inactive”. As for LGAKILCNWRVVHDSSCQHL, the entry is “inactive”.

Consider LGASRGMFVKNLLIMASHSR, for which the amyloid nucleation score result is “inactive”. On to LGCKESSVPPARVRGPGQAI, for which the amyloid nucleation score result was “inactive”. Consider LGFESCVHRGKIKAVVMTST, for which the amyloid nucleation score entry was “inactive”. Turning to LGGCPSNDGSFYVSSSLLHV, the amyloid nucleation score entry was “inactive”.

With LGGLCPCF, the amyloid nucleation score entry was “inactive”. As for LGIRWLLACWVVENLDFPNI, the figure is -0.719 ± 1.

Turning to LGKHRANHCMAGQDVAYKWV, the amyloid nucleation score is -0.831 ± 1.1. On to LGLECVGPFCKGVYFWLDG, for which the amyloid nucleation score result is “inactive”. With LGLISIAESRRLSRSDSMWW, the amyloid nucleation score entry is “inactive”. Take LGMGSSDYRGRYRSNS: the amyloid nucleation score entry is “inactive”. As for LGNRQVRNLATYPDNYLTCT, the entry is “inactive”. For the substance LGQFQCQE, the amyloid nucleation score entry is “inactive”.

For LGYDWRDVNNGK, the amyloid nucleation score entry is “inactive”. With LHCTLSNSLSYLHDIQQLLH, the amyloid nucleation score result was “inactive”. As for LHESRVAGSNQLSRRDHERW, the amyloid nucleation score result was “inactive”. LHEVLF: the amyloid nucleation score entry is “inactive”. With LHGNYVGQLLDLEIPVRGWI, the amyloid nucleation score entry is “inactive”. For the substance LHIVNCCQPKHTRFVFQWYW, the amyloid nucleation score stood at 1.89 ± 0.1. As for LIDKCGKHQTFMGC, the entry is “inactive”; as for LIDMFIFNARVSNGDFYCPN, 0.718 ± 0.13; as for LIDMVVFNYKLVIRVRKGSL, “inactive”. On to LIELSSSPRSYGHQVLM, for which the amyloid nucleation score entry is “inactive”. For the substance LIGLRCMPLRV, the amyloid nucleation score entry is “inactive”. Regarding LIGSYICYAVGLMVTLNNWW, the amyloid nucleation score entry was “inactive”. For the substance LIIMNVKSSSSHKRAGVST, the amyloid nucleation score result is “inactive”.

With LIINIHDRLLVRVPLWDWLR, the amyloid nucleation score entry was “inactive”. The substance LIISLGTVVIDVQSKKSLLL came in with an amyloid nucleation score of 2.29 ± 0.079.

With LILIRAVSG, the amyloid nucleation score result is “inactive”. As for LIMGTVVLIL, the amyloid nucleation score stood at 1.54 ± 0.073. On to LINAGTKFMQDTRSCWMHSS, for which the amyloid nucleation score entry was “inactive”.

LINFEY had an amyloid nucleation score of 1.16 ± 0.073.

LINVELYLPGLRRIWAPSSG came in with an amyloid nucleation score of 0.221 ± 0.54. For LIQPFFWCHCHDLAVDESGE, the amyloid nucleation score was 1.66 ± 0.11. In the case of LIRAVGFGGWILIAHWYIWN, the amyloid nucleation score result is “inactive”. The same measure for LIRGK: “inactive”; for LISNFVWLQLRCA: “inactive”; for LISTWNMAYSLSLIMMDHHS: “inactive”. With LIVYFRPYGNALRRFVRSYV, the amyloid nucleation score entry is “inactive”. Turning to LIYDRHSWNHWSSQHVDRDG, the amyloid nucleation score result was “inactive”. In the case of LKLMKNDCRFSNGNLVVVRV, the amyloid nucleation score result was “inactive”. LKLYQAAL: the amyloid nucleation score entry was “inactive”. As to LKLYTLLDRNSNKRTNAGMS, the amyloid nucleation score is -0.469 ± 0.88. As for LKRLHFKSGDMSGQRQFRGS, the amyloid nucleation score result is “inactive”.

On to LKSIYLLKWCPTSQLRTTSV, for which the amyloid nucleation score entry was “inactive”. Turning to LKTVSMSYD, the amyloid nucleation score result is “inactive”. As for LKVMWLWSAKINYMSIVENL, the amyloid nucleation score entry is “inactive”. For the substance LKVVYGSLALPSFKFIWQAE, the amyloid nucleation score entry is “inactive”. In turn, LKWNTTSVNVVYLSFIIGRQ gave an amyloid nucleation score of 2.15 ± 0.086. As for LLANDSWF, the entry is “inactive”; as for LLDYRPKTGNCRVQIRLCVV, “inactive”.

LLGMLIRGDAF: the amyloid nucleation score result is “inactive”.

These data come from the supplement of paper PMC12042874.
